# B1: MYBL2 (parent)
# chain: IAKHLKGRLGKQCRERWHNHLNPE
# B2: NET1 (parent)
# chain: PTPAKRRSSALWSEMLDITMKESL
# Variants of: B1
# Experiment: protein stability index of a GFP-peptide fusion (GPS, HEK-293T) (PSI 1-6); higher = more stable
# Conditions: c terminus: a fixed tail appended
# 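Note: lentivirally expressed fusions sorted by FACS into six bins by GFP to DsRed ratio, PSI derived from sequencing read proportions per bin multiplied by bin number.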
row,Variant,protein stability index
1,IAKRLKGRLGKQCRERWHNHLNPE [H4R],2.17
2,IAKALKGRLGKQCRERWHNHLNPE [H4A],2.33
3,IAKGLKGRLGKQCRERWHNHLNPE [H4G],2.2
4,IAKYLKGRLGKQCRERWHNHLNPE [H4Y],4.85
5,IAKKLKGRLGKQCRERWHNHLNPE [H4K],2.12
6,IAKSLKGRLGKQCRERWHNHLNPE [H4S],1.73
7,IAKQLKGRLGKQCRERWHNHLNPE [H4Q],2.27
8,IAKTLKGRLGKQCRERWHNHLNPE [H4T],1.87
9,IAKFLKGRLGKQCRERWHNHLNPE [H4F],2.52
10,IAKLLKGRLGKQCRERWHNHLNPE [H4L],2.33
11,IAKPLKGRLGKQCRERWHNHLNPE [H4P],2.15
12,IAKVLKGRLGKQCRERWHNHLNPE [H4V],3.2
13,IAKELKGRLGKQCRERWHNHLNPE [H4E],2.04
14,IAKMLKGRLGKQCRERWHNHLNPE [H4M],1.83
15,IAKWLKGRLGKQCRERWHNHLNPE [H4W],1.76
16,IAKCLKGRLGKQCRERWHNHLNPE [H4C],3.5
17,IAKNLKGRLGKQCRERWHNHLNPE [H4N],1.57
18,IAKDLKGRLGKQCRERWHNHLNPE [H4D],2.74
19,IAKHLKGRPGKQCRERWHNHLNPE [L9P],2.28
20,IAKHLKGRAGKQCRERWHNHLNPE [L9A],1.76
21,IAKHLKGRRGKQCRERWHNHLNPE [L9R],2.72
22,IAKHLKGRTGKQCRERWHNHLNPE [L9T],1.99
23,IAKHLKGRNGKQCRERWHNHLNPE [L9N],2.31
24,IAKHLKGRMGKQCRERWHNHLNPE [L9M],2.45

row,Variant,protein stability index
1,IAKHLKGRFGKQCRERWHNHLNPE [L9F],1.7
2,IAKHLKGRGGKQCRERWHNHLNPE [L9G],2.45
3,IAKHLKGREGKQCRERWHNHLNPE [L9E],2.73
4,IAKHLKGRVGKQCRERWHNHLNPE [L9V],2.18
5,IAKHLKGRIGKQCRERWHNHLNPE [L9I],1.43
6,IAKHLKGRSGKQCRERWHNHLNPE [L9S],2.55
7,IAKHLKGRCGKQCRERWHNHLNPE [L9C],2.08
8,IAKHLKGRDGKQCRERWHNHLNPE [L9D],3.01
9,IAKHLKGRHGKQCRERWHNHLNPE [L9H],2
10,IAKHLKGRYGKQCRERWHNHLNPE [L9Y],2.24
11,IAKHLKGRWGKQCRERWHNHLNPE [L9W],1.67
12,IAKHLKGRQGKQCRERWHNHLNPE [L9Q],2.06
13,IAKHLKGRKGKQCRERWHNHLNPE [L9K],2.5
14,IAKHLSGRLGKQCRERWHNHLNPE [K6S],1.81
15,IAKHLFGRLGKQCRERWHNHLNPE [K6F],2.94
16,IAKHLYGRLGKQCRERWHNHLNPE [K6Y],1.77
17,IAKHLAGRLGKQCRERWHNHLNPE [K6A],1.7
18,IAKHLEGRLGKQCRERWHNHLNPE [K6E],1.55
19,IAKHLQGRLGKQCRERWHNHLNPE [K6Q],1.56
20,IAKHLHGRLGKQCRERWHNHLNPE [K6H],1.91
21,IAKHLLGRLGKQCRERWHNHLNPE [K6L],4.25
22,IAKHLCGRLGKQCRERWHNHLNPE [K6C],2.59
23,IAKHLTGRLGKQCRERWHNHLNPE [K6T],2.21
24,IAKHLPGRLGKQCRERWHNHLNPE [K6P],2.03

row,Variant,protein stability index
1,IAKHLRGRLGKQCRERWHNHLNPE [K6R],1.67
2,IAKHLMGRLGKQCRERWHNHLNPE [K6M],1.97
3,IAKHLVGRLGKQCRERWHNHLNPE [K6V],2.45
4,IAKHLGGRLGKQCRERWHNHLNPE [K6G],1.67
5,IAKHLDGRLGKQCRERWHNHLNPE [K6D],2.46
6,IAKHLWGRLGKQCRERWHNHLNPE [K6W],1.27
7,IAKHLNGRLGKQCRERWHNHLNPE [K6N],2.21
8,IAKHLKGQLGKQCRERWHNHLNPE [R8Q],1.76
9,IAKHLKGWLGKQCRERWHNHLNPE [R8W],2.73
10,IAKHLKGILGKQCRERWHNHLNPE [R8I],1.53
11,IAKHLKGSLGKQCRERWHNHLNPE [R8S],1.8
12,IAKHLKGVLGKQCRERWHNHLNPE [R8V],1.6
13,IAKHLKGDLGKQCRERWHNHLNPE [R8D],2.41
14,IAKHLKGALGKQCRERWHNHLNPE [R8A],1.97
15,IAKHLKGHLGKQCRERWHNHLNPE [R8H],1.91
16,IAKHLKGYLGKQCRERWHNHLNPE [R8Y],1.9
17,IAKHLKGPLGKQCRERWHNHLNPE [R8P],2.65
18,IAKHLKGMLGKQCRERWHNHLNPE [R8M],1.74
19,IAKHLKGCLGKQCRERWHNHLNPE [R8C],2.23
20,IAKHLKGELGKQCRERWHNHLNPE [R8E],2.14
21,IAKHLKGTLGKQCRERWHNHLNPE [R8T],1.63
22,IAKHLKGKLGKQCRERWHNHLNPE [R8K],2.11
23,IAKHLKGGLGKQCRERWHNHLNPE [R8G],1.81
24,IAKHLKGNLGKQCRERWHNHLNPE [R8N],1.61

# Variants of: B2
# Experiment: as above
# Conditions: c terminus: a fixed tail appended
row,Variant,protein stability index
1,PTPAHRRSSALWSEMLDITMKESL [K5H],2.55
2,PTPAKRRKSALWSEMLDITMKESL [S8K],2.96
3,PTPAKRRSSSLWSEMLDITMKESL [A10S],2.1
4,PTPAKRRSSPLWSEMLDITMKESL [A10P],2
5,PTPAKHRSSALWSEMLDITMKESL [R6H],4.19
6,PTPAKDRSSALWSEMLDITMKESL [R6D],2.79
7,PTPAKRRSSALWSEMLDITFKESL [M20F],1.88
8,PTPAKRRSSALWSEMLDITYKESL [M20Y],2.64
9,PTPAKRRSSALWSEMLDITWKESL [M20W],1.72
10,RTPAKRRSSALWSEMLDITMKESL [P1R],1.92
11,PTPAKRRSSALWSEMLDITMFESL [K21F],1.17
12,PTPAKRRSSALWSEMLDITMTESL [K21T],2.21
13,PTPAKRRSSALWSEMLDITMDESL [K21D],3.04
14,PTPAKRRSSALWYEMLDITMKESL [S13Y],2.09
15,PTPAKRRSSALWREMLDITMKESL [S13R],2.42
16,PTYAKRRSSALWSEMLDITMKESL [P3Y],1.61
17,PTPAKRRSSALWSEMLEITMKESL [D17E],2.07
18,PTPAKRRSSALWSEMLTITMKESL [D17T],1.92
19,PTPAKRRSSALWSEMLDITMKEML [S23M],1.33
20,PTPFKRRSSALWSEMLDITMKESL [A4F],2.03
21,PTPMKRRSSALWSEMLDITMKESL [A4M],2.07
22,PTPAKRRSSALWSEDLDITMKESL [M15D],3.91

# From the supplement of paper PMC10567573
